{"source": "patent US11653679B2", "about": "“High-purity steviol glycosides” (PureCircle Sdn Bhd, priority 2014, dated 2023)", "molecules": {"B1": {"name": "UGT76G1var84: UGT76G1 variant, mutations F22L_Q266S_F314S_A352G_S357C (protein, UniProt Q6VAB4 1-458, looked up, variant F22L Q266S F314S A352G S357C)", "UDP-glycosyltransferase 76G1": "MENKTETTVRRRRRIILFPVPLQGHINPILQLANVLYSKGFSITIFHTNFNKPKTSNYPHFTFRFILDNDPQDERISNLPTHGPLAGMRIPIINEHGADELRRELELLMLASEEDEEVSCLITDALWYFAQSVADSLNLRRLVLMTSSLFNFHAHVSLPQFDELGYLDPDDKTRLEEQASGFPMLKVKDIKSAYSNWQILKEILGKMIKQTKASSGVIWNSFKELEESELETVIREIPAPSFLIPLPKHLTASSSSLLDHDRTVFSWLDQQPPSSVLYVSFGSTSEVDEKDFLEIARGLVDSKQSFLWVVRPGSVKGSTWVEPLPDGFLGERGRIVKWVPQQEVLAHGAIGGFWTHCGWNSTLESVCEGVPMIFSDFGLDQPLNARYMSDVLKVGVYLENGWERGEIANAIRRVMVDEEGEYIRQNARVLKQKADVSLMKGGSSYESLESLVSYISSL"}, "B2": {"name": "UGT76G1var92: UGT76G1 variant, mutations K303G_S357N_V366I_V394I_I407V (protein, UniProt Q6VAB4 1-458, looked up, variant K303G S357N V366I V394I I407V)", "UDP-glycosyltransferase 76G1": "MENKTETTVRRRRRIILFPVPFQGHINPILQLANVLYSKGFSITIFHTNFNKPKTSNYPHFTFRFILDNDPQDERISNLPTHGPLAGMRIPIINEHGADELRRELELLMLASEEDEEVSCLITDALWYFAQSVADSLNLRRLVLMTSSLFNFHAHVSLPQFDELGYLDPDDKTRLEEQASGFPMLKVKDIKSAYSNWQILKEILGKMIKQTKASSGVIWNSFKELEESELETVIREIPAPSFLIPLPKHLTASSSSLLDHDRTVFQWLDQQPPSSVLYVSFGSTSEVDEKDFLEIARGLVDSGQSFLWVVRPGFVKGSTWVEPLPDGFLGERGRIVKWVPQQEVLAHGAIGAFWTHNGWNSTLESICEGVPMIFSDFGLDQPLNARYMSDVLKIGVYLENGWERGEVANAIRRVMVDEEGEYIRQNARVLKQKADVSLMKGGSSYESLESLVSYISSL"}, "B3": {"name": "UGT76G1var85: UGT76G1 variant, mutations T284L_G348P_F377C_P382M_N409R (protein, UniProt Q6VAB4 1-458, looked up, variant T284L G348P F377C P382M N409R)", "UDP-glycosyltransferase 76G1": "MENKTETTVRRRRRIILFPVPFQGHINPILQLANVLYSKGFSITIFHTNFNKPKTSNYPHFTFRFILDNDPQDERISNLPTHGPLAGMRIPIINEHGADELRRELELLMLASEEDEEVSCLITDALWYFAQSVADSLNLRRLVLMTSSLFNFHAHVSLPQFDELGYLDPDDKTRLEEQASGFPMLKVKDIKSAYSNWQILKEILGKMIKQTKASSGVIWNSFKELEESELETVIREIPAPSFLIPLPKHLTASSSSLLDHDRTVFQWLDQQPPSSVLYVSFGSLSEVDEKDFLEIARGLVDSKQSFLWVVRPGFVKGSTWVEPLPDGFLGERGRIVKWVPQQEVLAHPAIGAFWTHSGWNSTLESVCEGVPMIFSDCGLDQMLNARYMSDVLKVGVYLENGWERGEIARAIRRVMVDEEGEYIRQNARVLKQKADVSLMKGGSSYESLESLVSYISSL"}, "B4": {"name": "UGT76G1var5: UGT76G1 variant, mutations F22Y_I373L_P382M (protein, UniProt Q6VAB4 1-458, looked up, variant F22Y I373L P382M)", "UDP-glycosyltransferase 76G1": "MENKTETTVRRRRRIILFPVPYQGHINPILQLANVLYSKGFSITIFHTNFNKPKTSNYPHFTFRFILDNDPQDERISNLPTHGPLAGMRIPIINEHGADELRRELELLMLASEEDEEVSCLITDALWYFAQSVADSLNLRRLVLMTSSLFNFHAHVSLPQFDELGYLDPDDKTRLEEQASGFPMLKVKDIKSAYSNWQILKEILGKMIKQTKASSGVIWNSFKELEESELETVIREIPAPSFLIPLPKHLTASSSSLLDHDRTVFQWLDQQPPSSVLYVSFGSTSEVDEKDFLEIARGLVDSKQSFLWVVRPGFVKGSTWVEPLPDGFLGERGRIVKWVPQQEVLAHGAIGAFWTHSGWNSTLESVCEGVPMLFSDFGLDQMLNARYMSDVLKVGVYLENGWERGEIANAIRRVMVDEEGEYIRQNARVLKQKADVSLMKGGSSYESLESLVSYISSL"}, "B5": {"name": "UGT76G1var86: UGT76G1 variant, mutations E224A_T284L_V396F_Y397E_I407V (protein, UniProt Q6VAB4 1-458, looked up, variant E224A T284L V396F Y397E I407V)", "UDP-glycosyltransferase 76G1": "MENKTETTVRRRRRIILFPVPFQGHINPILQLANVLYSKGFSITIFHTNFNKPKTSNYPHFTFRFILDNDPQDERISNLPTHGPLAGMRIPIINEHGADELRRELELLMLASEEDEEVSCLITDALWYFAQSVADSLNLRRLVLMTSSLFNFHAHVSLPQFDELGYLDPDDKTRLEEQASGFPMLKVKDIKSAYSNWQILKEILGKMIKQTKASSGVIWNSFKALEESELETVIREIPAPSFLIPLPKHLTASSSSLLDHDRTVFQWLDQQPPSSVLYVSFGSLSEVDEKDFLEIARGLVDSKQSFLWVVRPGFVKGSTWVEPLPDGFLGERGRIVKWVPQQEVLAHGAIGAFWTHSGWNSTLESVCEGVPMIFSDFGLDQPLNARYMSDVLKVGFELENGWERGEVANAIRRVMVDEEGEYIRQNARVLKQKADVSLMKGGSSYESLESLVSYISSL"}, "B6": {"name": "UGT76G1var90: UGT76G1 variant, mutations E231A_S241I_S274G_Y397Q_Q425E (protein, UniProt Q6VAB4 1-458, looked up, variant E231A S241I S274G Y397Q Q425E)", "UDP-glycosyltransferase 76G1": "MENKTETTVRRRRRIILFPVPFQGHINPILQLANVLYSKGFSITIFHTNFNKPKTSNYPHFTFRFILDNDPQDERISNLPTHGPLAGMRIPIINEHGADELRRELELLMLASEEDEEVSCLITDALWYFAQSVADSLNLRRLVLMTSSLFNFHAHVSLPQFDELGYLDPDDKTRLEEQASGFPMLKVKDIKSAYSNWQILKEILGKMIKQTKASSGVIWNSFKELEESELATVIREIPAPIFLIPLPKHLTASSSSLLDHDRTVFQWLDQQPPGSVLYVSFGSTSEVDEKDFLEIARGLVDSKQSFLWVVRPGFVKGSTWVEPLPDGFLGERGRIVKWVPQQEVLAHGAIGAFWTHSGWNSTLESVCEGVPMIFSDFGLDQPLNARYMSDVLKVGVQLENGWERGEIANAIRRVMVDEEGEYIRENARVLKQKADVSLMKGGSSYESLESLVSYISSL"}, "B7": {"name": "UGT76G1var87: UGT76G1 variant, mutations S241I_L243A_V300A_F314S_N409R (protein, UniProt Q6VAB4 1-458, looked up, variant S241I L243A V300A F314S N409R)", "UDP-glycosyltransferase 76G1": "MENKTETTVRRRRRIILFPVPFQGHINPILQLANVLYSKGFSITIFHTNFNKPKTSNYPHFTFRFILDNDPQDERISNLPTHGPLAGMRIPIINEHGADELRRELELLMLASEEDEEVSCLITDALWYFAQSVADSLNLRRLVLMTSSLFNFHAHVSLPQFDELGYLDPDDKTRLEEQASGFPMLKVKDIKSAYSNWQILKEILGKMIKQTKASSGVIWNSFKELEESELETVIREIPAPIFAIPLPKHLTASSSSLLDHDRTVFQWLDQQPPSSVLYVSFGSTSEVDEKDFLEIARGLADSKQSFLWVVRPGSVKGSTWVEPLPDGFLGERGRIVKWVPQQEVLAHGAIGAFWTHSGWNSTLESVCEGVPMIFSDFGLDQPLNARYMSDVLKVGVYLENGWERGEIARAIRRVMVDEEGEYIRQNARVLKQKADVSLMKGGSSYESLESLVSYISSL"}, "B8": {"name": "UGT76G1var89: UGT76G1 variant, mutations F41L_E229A_E231A_F265L_P272A (protein, UniProt Q6VAB4 1-458, looked up, variant F41L E229A E231A F265L P272A)", "UDP-glycosyltransferase 76G1": "MENKTETTVRRRRRIILFPVPFQGHINPILQLANVLYSKGLSITIFHTNFNKPKTSNYPHFTFRFILDNDPQDERISNLPTHGPLAGMRIPIINEHGADELRRELELLMLASEEDEEVSCLITDALWYFAQSVADSLNLRRLVLMTSSLFNFHAHVSLPQFDELGYLDPDDKTRLEEQASGFPMLKVKDIKSAYSNWQILKEILGKMIKQTKASSGVIWNSFKELEESALATVIREIPAPSFLIPLPKHLTASSSSLLDHDRTVLQWLDQQAPSSVLYVSFGSTSEVDEKDFLEIARGLVDSKQSFLWVVRPGFVKGSTWVEPLPDGFLGERGRIVKWVPQQEVLAHGAIGAFWTHSGWNSTLESVCEGVPMIFSDFGLDQPLNARYMSDVLKVGVYLENGWERGEIANAIRRVMVDEEGEYIRQNARVLKQKADVSLMKGGSSYESLESLVSYISSL"}, "B9": {"name": "UGT76G1var88: UGT76G1 variant, mutations A239V_T284I_V310I_Q342K_L379A (protein, UniProt Q6VAB4 1-458, looked up, variant A239V T284I V310I Q342K L379A)", "UDP-glycosyltransferase 76G1": "MENKTETTVRRRRRIILFPVPFQGHINPILQLANVLYSKGFSITIFHTNFNKPKTSNYPHFTFRFILDNDPQDERISNLPTHGPLAGMRIPIINEHGADELRRELELLMLASEEDEEVSCLITDALWYFAQSVADSLNLRRLVLMTSSLFNFHAHVSLPQFDELGYLDPDDKTRLEEQASGFPMLKVKDIKSAYSNWQILKEILGKMIKQTKASSGVIWNSFKELEESELETVIREIPVPSFLIPLPKHLTASSSSLLDHDRTVFQWLDQQPPSSVLYVSFGSISEVDEKDFLEIARGLVDSKQSFLWVIRPGFVKGSTWVEPLPDGFLGERGRIVKWVPQKEVLAHGAIGAFWTHSGWNSTLESVCEGVPMIFSDFGADQPLNARYMSDVLKVGVYLENGWERGEIANAIRRVMVDEEGEYIRQNARVLKQKADVSLMKGGSSYESLESLVSYISSL"}, "B10": {"name": "UGT76G1var91: UGT76G1 variant, mutations E224A_L246F_T263S_F265I_Q342K (protein, UniProt Q6VAB4 1-458, looked up, variant E224A L246F T263S F265I Q342K)", "UDP-glycosyltransferase 76G1": "MENKTETTVRRRRRIILFPVPFQGHINPILQLANVLYSKGFSITIFHTNFNKPKTSNYPHFTFRFILDNDPQDERISNLPTHGPLAGMRIPIINEHGADELRRELELLMLASEEDEEVSCLITDALWYFAQSVADSLNLRRLVLMTSSLFNFHAHVSLPQFDELGYLDPDDKTRLEEQASGFPMLKVKDIKSAYSNWQILKEILGKMIKQTKASSGVIWNSFKALEESELETVIREIPAPSFLIPFPKHLTASSSSLLDHDRSVIQWLDQQPPSSVLYVSFGSTSEVDEKDFLEIARGLVDSKQSFLWVVRPGFVKGSTWVEPLPDGFLGERGRIVKWVPQKEVLAHGAIGAFWTHSGWNSTLESVCEGVPMIFSDFGLDQPLNARYMSDVLKVGVYLENGWERGEIANAIRRVMVDEEGEYIRQNARVLKQKADVSLMKGGSSYESLESLVSYISSL"}}, "test": "Directed evolution of UGT76G1, Rebaudioside D to Rebaudioside M, round 1 (Example 26)", "assay_type": "biochemical", "details": "100 μL fresh lysate, 0.5 mM Rebaudioside D, 30° C., pH 7.2", "procedure,_shortened": "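Conversion and initial rate were determined by HPLC with CAD detection on samples taken at 2, 4, 7 and 24 h. Reactions ran at 30 °C in 50 mM phosphate buffer pH 7.2 with lysate, Rebaudioside D (0.5 mM), UDP-glucose (2.5 mM) and MgCl2 (3 mM).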"}
{"molecule": "B1", "values": [{"measurement": "conversion Reb D to Reb M after 24 h", "value": 1.2, "unit": "%"}, {"measurement": "initial rate", "value": "2.3E+05", "unit": "Reb M area/min"}]}
{"molecule": "B2", "values": [{"measurement": "conversion Reb D to Reb M after 24 h", "value": 1.6, "unit": "%"}, {"measurement": "initial rate", "value": "3.6E+05", "unit": "Reb M area/min"}]}
{"molecule": "B3", "values": [{"measurement": "conversion Reb D to Reb M after 24 h", "value": 1.8, "unit": "%"}, {"measurement": "initial rate", "value": "4.0E+05", "unit": "Reb M area/min"}]}
{"molecule": "B4", "values": [{"measurement": "conversion Reb D to Reb M after 24 h", "value": 3.5, "unit": "%"}, {"measurement": "initial rate", "value": "2.3E+06", "unit": "Reb M area/min"}]}
{"molecule": "B5", "values": [{"measurement": "conversion Reb D to Reb M after 24 h", "value": 1.6, "unit": "%"}, {"measurement": "initial rate", "value": "3.8E+05", "unit": "Reb M area/min"}]}
{"molecule": "B6", "values": [{"measurement": "initial rate", "value": "1.9E+07", "unit": "Reb M area/min"}]}
{"molecule": "B7", "values": [{"measurement": "initial rate", "value": "2.1E+07", "unit": "Reb M area/min"}]}
{"molecule": "B8", "values": [{"measurement": "conversion Reb D to Reb M after 24 h", "value": 1.2, "unit": "%"}, {"measurement": "initial rate", "value": "2.1E+05", "unit": "Reb M area/min"}]}
{"molecule": "B9", "values": [{"measurement": "conversion Reb D to Reb M after 24 h", "value": 1.6, "unit": "%"}, {"measurement": "initial rate", "value": "3.8E+05", "unit": "Reb M area/min"}]}
{"molecule": "B10", "values": [{"measurement": "conversion Reb D to Reb M after 24 h", "value": 1.2, "unit": "%"}, {"measurement": "initial rate", "value": "2.3E+05", "unit": "Reb M area/min"}]}
